Results reported in patent US20260098064A1 (PENN STATE RESEARCH FOUNDATION, published 2026).
Positions count from the first letter of the chain named. Names and notes keep the numbering of the source.

Assays:
[1] = target: the molecule itself; assay: ITC, dimer dissociation model, buffer with 5% glycerol; apo wt Hans-LanM
Protocol: (§1) Isothermal titration calorimetry. The dissociation constants for the dimers of apo, La^III-bound, and Dy^III-bound Hans-LanM were determined by dilutive additions of a concentrated protein stock, followed using ITC on a TA Instruments Low-volume Auto Affinity ITC. The syringe contained 300 μM protein (apo or 2 equiv. Dy^III bound) or 150 μM or 540 μM (2 equiv. La^III bound), and the cell contained 185 μL of a matched buffer (30 mM MOPS, 100 mM KCl, pH 7.0). Titrations were carried out at 30° C. Titrations consisted of a first 0.2 μL injection followed by 17×2 μL injections, unless otherwise noted, with stirring at 125 rpm and 180 s equilibration time between injections. The heats were fitted using NanoAnalyze using the “Dimer Dissociation” model, yielding the dimer dissociation constant (Kdimer), enthalpy of dissociation (ΔH), and entropy of dissociation (ΔS).
(§2) Table 21. Thermodynamics parameters for WT and R100K Hans-LanM, obtained by fitting ITC thermograms to the dimer dissociation model. These experiments were carried out similarly to those shown in Table 18, except that 5% glycerol was present in the buffer.

[2] = analytical SEC (Superdex S75); Hans-LanM with 3.0 equiv. Eu^III
[3] = analytical SEC (Superdex S75); Hans-LanM with 3.0 equiv. Nd^III
[4] = target: the molecule itself; assay: ITC dilution of 300 µM protein, dimer dissociation model (Kdimer); Hans-LanM with 2 equiv. Dy^III; 30 mM MOPS, 100 mM KCl, pH 7.0, 30 C
Protocol: as §1

[5] = target: the molecule itself; assay: ITC dilution of 300 µM protein, dimer dissociation model (Kdimer); apo Hans-LanM; 30 mM MOPS, 100 mM KCl, pH 7.0, 30 C
Protocol: as §1

[6] = target: the molecule itself; assay: ITC, dimer dissociation model; apo Hans-LanM
Protocol: as §1

[7] = analytical SEC (Superdex S75); Hans-LanM with 3.0 equiv. Tb^III
[8] = analytical SEC (Superdex S75); Hans-LanM with 3.0 equiv. Sm^III
[9] = analytical SEC (Superdex S75); Hans-LanM with 3.0 equiv. Gd^III
[10] = target: the molecule itself; assay: ITC, dimer dissociation model, buffer with 5% glycerol; Dy-bound wt Hans-LanM
Protocol: as §1, §2

[11] = target: the molecule itself; assay: ITC, dimer dissociation model, 5% glycerol; Dy-bound wt Hans-LanM; unit not printed (Table 18: kcal/mol)
Protocol: as §1, §2

[12] = target: the molecule itself; assay: ITC, dimer dissociation model; Dy^III-bound Hans-LanM
Protocol: as §1

[13] = target: the molecule itself; assay: ITC, dimer dissociation model, 5% glycerol; Dy-bound wt Hans-LanM; unit not printed (Table 18: cal/mol/K)
Protocol: as §1, §2

[14] = analytical SEC (Superdex S75); Hans-LanM with 3.0 equiv. Ho^III
[15] = target: the molecule itself; assay: ITC and SEC-MALS estimate; La^III-bound against Dy^III-bound Hans-LanM
Protocol: (§3) To provide further support for preferential dimerization in the presence of physiologically relevant LREs, RE complexes of Hans-LanM were analyzed using multi-angle light scattering (MALS) (FIG. 2a, FIG. 9). The La^III, Nd^III, and Gd^III complexes have MWs of 22-25 kDa, indicative of dimers, but MWs decrease starting with Tb^III and continue to Dy^III and Ho^III, at ˜15 kDa (Table 17), in agreement with the SEC data. Ca^II-bound Hans-LanM also indicated a MW of 14.7 kDa. […] The Kd for dimerization (Kdimer) of apo-, La^III-bound, and Dy^III-bound Hans-LanM was determined by isothermal titration calorimetry (ITC) (FIG. 10-12, Table 18). […] Thus, La^III favors Hans-LanM's dimerization by >100-fold over Dy^III.
(§4) Isothermal titration calorimetry. The dissociation constants for the dimers of apo, La^III-bound, and Dy^III-bound Hans-LanM were determined by dilutive additions of a concentrated protein stock, followed using ITC on a TA Instruments Low-volume Auto Affinity ITC. The syringe contained 300 μM protein (apo or 2 equiv. Dy^III bound) or 150 μM or 540 μM (2 equiv. La^III bound), and the cell contained 185 μL of a matched buffer (30 mM MOPS, 100 mM KCl, pH 7.0). Titrations were carried out at 30° C. Titrations consisted of a first 0.2 μL injection followed by 17×2 μL injections, unless otherwise noted, with stirring at 125 rpm and 180 s equilibration time between injections. […]

[16] = target: the molecule itself; assay: La^III-bound Hans-LanM; no monomerization seen by ITC; upper limit estimated from SEC-MALS peak concentration (FIG. 12)
Protocol: as §3, §4

[17] = analytical SEC (Superdex S75); Hans-LanM with 3.0 equiv. Dy^III
[18] = target: the molecule itself; assay: ITC, dimer dissociation model, 5% glycerol; apo wt Hans-LanM; unit not printed (Table 18: cal/mol/K)
Protocol: as §1, §2

[19] = target: the molecule itself; assay: ITC, dimer dissociation model, 5% glycerol; apo wt Hans-LanM; unit not printed (Table 18: kcal/mol)
Protocol: as §1, §2

[20] = analytical SEC (Superdex S75); Hans-LanM (590 µM) with 3.0 equiv. La^III
[21] = target: the molecule itself; assay: ITC, dimer dissociation model, buffer with 5% glycerol; La-bound R100K-Hans-LanM; ITC dimer dissociation model, 5% glycerol; La-bound R100K
Protocol: as §1, §2

[22] = target: the molecule itself; assay: ITC, dimer dissociation model, buffer with 5% glycerol; Dy-bound R100K-Hans-LanM; ITC dimer dissociation model, 5% glycerol; Dy-bound R100K
Protocol: as §1, §2

[23] = target: the molecule itself; assay: ITC, dimer dissociation model, 5% glycerol; Dy-bound R100K-Hans-LanM; unit not printed (Table 18: cal/mol/K)
Protocol: as §1, §2

[24] = target: the molecule itself; assay: ITC, dimer dissociation model, 5% glycerol; La-bound R100K-Hans-LanM; unit not printed (Table 18: cal/mol/K)
Protocol: as §1, §2

[25] = target: the molecule itself; assay: ITC, dimer dissociation model, 5% glycerol; apo R100K-Hans-LanM; unit not printed (Table 18: kcal/mol); ITC dimer dissociation model, 5% glycerol; apo R100K
Protocol: as §1, §2

[26] = target: the molecule itself; assay: ITC, dimer dissociation model, 5% glycerol; La-bound R100K-Hans-LanM; unit not printed (Table 18: kcal/mol)
Protocol: as §1, §2

[27] = target: the molecule itself; assay: ITC, dimer dissociation model, 5% glycerol; Dy-bound R100K-Hans-LanM; unit not printed (Table 18: kcal/mol); ITC dimer dissociation model, 5% glycerol; Dy-bound R100K
Protocol: as §1, §2

[28] = target: the molecule itself; assay: ITC, dimer dissociation model, 5% glycerol; apo R100K-Hans-LanM; unit not printed (Table 18: kcal/mol)
Protocol: as §1, §2

[29] = target: the molecule itself; assay: ITC, dimer dissociation model, 5% glycerol; La-bound R100K-Hans-LanM; unit not printed (Table 18: kcal/mol); ITC dimer dissociation model, 5% glycerol; La-bound R100K
Protocol: as §1, §2

[30] = target: the molecule itself; assay: ITC, dimer dissociation model, 5% glycerol; apo R100K-Hans-LanM; unit not printed (Table 18: cal/mol/K)
Protocol: as §1, §2

[31] = target: the molecule itself; assay: ITC, dimer dissociation model, buffer with 5% glycerol; apo R100K-Hans-LanM; ITC dimer dissociation model, 5% glycerol; apo R100K
Protocol: as §1, §2

[32] = target: the molecule itself; assay: ITC, dimer dissociation model, 5% glycerol; Dy-bound R100K-Hans-LanM; unit not printed (Table 18: kcal/mol)
Protocol: as §1, §2

[33] = size exclusion chromatography; 20 µM LanM_012 with 4.0 equiv. Dy^III; details: 20 µM protein, 5% glycerol, pH 7.0
[34] = size exclusion chromatography; 20 µM LanM_012 with 4.0 equiv. La^III; details: 20 µM protein, 5% glycerol, pH 7.0
[35] = target: the molecule itself; assay: SEC-MALS of apo, Ca^II, La^III, Nd^III and Dy^III Mex-LanM (Table 17); self-association
Protocol: In-line size-exclusion chromatography and multi-angle light scattering (SEC-MALS). SEC-MALS experiments were conducted using an Agilent 1260 Infinity II HPLC system equipped with an autosampler and fraction collector, and the Wyatt SEC hydrophilic column had 5 μm silica beads, a pore size of 100 Å, and dimensions of 7.8×300 mm. Wyatt Technology DAWN MALS and Wyatt Optilab Refractive Index (RI) detectors were used for analyzing the molar mass of peaks that eluted from the column. The SEC-MALS system was equilibrated for 5 h with Buffer B. The system was calibrated with bovine serum albumin (BSA, monomer MW: 66 kDa) in the same buffer and normalization and alignment of the MALS and RI detectors were carried out. A volume of 15 μL of each sample was injected at a flow rate of 0.8 mL/min with a chromatogram run time of 25 min. Data were analyzed using the ASTRA software (Wyatt). When SAXS analysis was desired, a second run was performed with 150 μL protein (˜4 mg/mL) injected, and 200 μL fractions of the main peak were collected. BioSAXS data were subsequently collected in triplicate.
Table 17. Characterization of Hans- and Mex-LanM metal complexes using SEC-MALS. The concentrations of the protein samples loaded to the column were: 1.2-1.5 mg/mL for apo- and RE-bound Hans-LanM, 3 mg/mL for Ca^II-bound Hans-LanM, and 3 mg/mL for Mex-LanM. […]

[36] = target: the molecule itself; assay: S75 gel filtration during purification, no Ca(II) included; self-association
Protocol: The procedures used for expression in E. coli and purification of LanM_013 were identical to those used for Mex-LanM, except that no Ca(II) was included in the gel filtration step. […] The elution volume of the protein from the S75 column was consistent with a monomer. The purification yielded 80 mg LanM_013 from 2 L culture (40 mg/L).

B1: Hans-LanM (lanmodulin from Hansschlegelia quercus, wild type, lacking signal peptide, as expressed in this study) (other)
chain: ASGADALKALNKDNDDSLEIAEVIHAGATTFTAINPDGDTTLESGETKGRLTEKDWARANKDGDQTLEMDEWLKILRTRFKRADANKDGKLTAAELDSKAGQGVLVMIMK
notes: also called LanM_002; wt
Kd [1]: 100 µM | Apparent MW (SEC, kDa) [2]: 25.5 kDa | Apparent MW (SEC, kDa) [3]: 27.8 kDa | Kd [4]: 60 µM | Kd [5]: 117 µM | ΔG of dimer dissociation [6]: 5.5 kcal/mol | ΔH of dimer dissociation [6]: 25.4 kcal/mol | ΔS of dimer dissociation [6]: 66 cal/mol/K | Apparent MW (SEC, kDa) [7]: 21.3 kDa | Apparent MW (SEC, kDa) [8]: 26.1 kDa | Apparent MW (SEC, kDa) [9]: 23 kDa | Kd [10]: 40 µM | ΔG of dimer dissociation [11]: 6.1 kcal/mol | ΔH of dimer dissociation [11]: -5 kcal/mol | ΔG of dimer dissociation [12]: 5.9 kcal/mol | ΔH of dimer dissociation [12]: -5.3 kcal/mol | ΔS of dimer dissociation [12]: -37 cal/mol/K | ΔS of dimer dissociation [13]: -36 cal/mol/K | Apparent MW (SEC, kDa) [14]: 17.9 kDa | fold enhancement of dimerization, La^III versus Dy^III [15]: 100 fold | Kd [16]: < 0.4 µM | Apparent MW (SEC, kDa) [17]: 20 kDa | ΔS of dimer dissociation [18]: 61 cal/mol/K | ΔG of dimer dissociation [19]: 6.3 kcal/mol | ΔH of dimer dissociation [19]: 24 kcal/mol | Apparent MW (SEC, kDa) [20]: 27.8 kDa

B2: R100K-Hans-LanM (other)
chain: B1 chain with R77K
notes: Monomer; also called Hans-LanM(R100K); R100K variant
Kd [21]: 14 µM | Kd [22]: 54 µM | ΔS of dimer dissociation [23]: -73 cal/mol/K | ΔS of dimer dissociation [24]: -84 cal/mol/K | ΔH of dimer dissociation [25]: 16 kcal/mol | ΔG of dimer dissociation [26]: 7 kcal/mol | ΔH of dimer dissociation [27]: -16 kcal/mol | ΔG of dimer dissociation [28]: 6 kcal/mol | ΔH of dimer dissociation [29]: -19 kcal/mol | ΔS of dimer dissociation [30]: 37 cal/mol/K | Kd [31]: 82 µM | ΔG of dimer dissociation [32]: 5.9 kcal/mol

B3: LanM_012 (Xanthobacter flavus LanM, with signal peptide removed) (protein)
chain: MLTGKEFLRKYNKDKDSTVEIVEAIDLGTKVFKAINPDKDKTLEAAETKGRLSDEDWAQFNKDGDKTLELDEWLIIVRKRFNDADANKDGKLTEAELDAPAGQQLILLIAK
apparent molecular weight (SEC) [33]: an apparent molecular weight of ˜29.1 kDa | apparent molecular weight (SEC) [34]: an apparent molecular weight of ˜29.1 kDa

B4: Mex-LanM (lanmodulin from Methylorubrum extorquens AM1) (other)
chain: APTTTTKVDIAAFDPDKDGTIDLKEALAAGSAAFDKLDPDKDGTLDAKELKGRVSEADLKKLDPDNDGTLDKKEYLAAVEAQFKAANPDNDGTIDARELASPAGSALVNLIR
notes: also called LanM_001; M. extorquens LanM
binding result [35]: no binding (tested: 3 mg/mL loaded)

B5: LanM_013 (Methyloligella sp. GL2 LanM, expressed construct; signal peptide removed and N-terminal Met added) (other)
chain: MGKAADAIQALDPDKDGTIDLNEAKAGAKAVFEKINPDGDGTLEVKELKGRLTKKELDAADPDNDGTLDMQEYEAVVTKQFELANPDNDGTVDEKELKTKEGKKLLKLIY
notes: Monomer
binding result [36]: no binding
